# Data as given in PMC10618197.
# Legend:
# [1] = molecular target: HbpD-SpyCatcher fusion protein displayed on the OMV surface (not stated | Streptococcus pyogenes); test: SDS-PAGE with in-gel fluorescence of the covalent adduct; 10 µM SpT-CF incubated with OMV isolates for 24 h at 4 °C; fluorescence of the specific band normalized to the OmpF band after PageBlue staining; 3 separate OMV isolates for each plasmid
# [2] = molecular target: AIDA-SpyCatcher fusion protein displayed on the OMV surface (Streptococcus pyogenes | not stated); test: as above
# [3] = molecular target: HbpD-SpyCatcher fusion protein displayed on the OMV surface (not stated | Streptococcus pyogenes); test: SEC; 10 µM SpT-CF incubated with OMV isolates for 24 h at 4 °C; SEC-HPLC on Sepharose CL-4B in PBS pH 7.4; AUC of the OMV peak of the fluorescent chromatogram normalized to the AUC of the corresponding UV peak
# [4] = molecular target: AIDA-SpyCatcher fusion protein displayed on the OMV surface (Streptococcus pyogenes | not stated); test: as above
substance,measurement,setting,value
carboxyfluorescein coupled SpyTag (peptide),SpT-CF band fluorescence normalized to the OmpF band,[1],4.15 AU
same,SpT-CF band fluorescence normalized to the OmpF band,[2],6.55 AU
same,fluorescence AUC of the OMV peak normalized to the UV AUC,[3],2.25 AU
same,fluorescence AUC of the OMV peak normalized to the UV AUC,[4],6.86 AU
